The record followed here is patent publication US20250027068.

Positions count from the first letter of the chain named.

The labels stand for the following.
B1: PRT-321 (protein)
chain: MTITSVWTKGVTPPTPEDFRENNEDVLHAPYVANQGWYDITKTFDGKDNLLCGAATAGNMLHWWFDQNKEEIERYLKKHPEKQKIIFGNQELFDVKAAIDTKDSQTNSKLFDYFRDKAFPNLSARQLGVMPDLVLDMFINGYYLNLPKTQSTDVNRPYQDKDKRGGIFDAVFTRGDQTTLLTARHDLKNKGLNEISDLIKQELTEGKALALSHTYANVRINHVINLWGADFDAEGNLIAIYVTDSDANASIGMKKYAVGVNANGKVAISAKKIEGDNIGAQVLGLFTLSTGQDQWQKLS
B2: PRT-329 (protein)
chain: B1 chain with G88N, D112N, N121G, M130F, P147G, D176V, A257F, V260R, T290L, Q294I
B3: PRT-273 (protein)
chain: MVTSVWTKGVTPPTDFIYGEDVLHAPYKAGQGWYDITKTFNGKDNLLCGAATAGNMLHWWFDQNKEQIENYLKKHPEKQKIIFNNQELFDLKAAIDTKDSQLDSKLFEYFKEKAFPNLSTKHLGVFPDHVIDMFINGYRLSLLNHGPTPVKRGSKDKRGGIFDAVFTRGVQSKLLTNRHDLKNKTLKEISDLIKQELTEGKALGISHTYANVRINHVINLWGADFDAEGNLEAIYVTDSDTNASIGMKKYFVGVNSSGKVAISAKEIEEDNIGAQVLGLFTLSTGQDIWNQTN
B4: PRT-289 (protein)
chain: MVTSVWTKGVTPPADFTQGEDVFHAPYVANQGWYDITKTFNGKDDLLCGAATAGNMLHWWFDQNKEYIEAYLKKHPEKQKIMFGDQELLDVRKAINTKGSQKNSELFNYFRDKAFPNLSARRLGVMPDLVLDMFINGYYLNVTKTQTTDVNRTYQEKDKRGGIFDAVFTRGDQSKLLTSRHDFKEKGLKEISDLIKQELTEGKALGLSHTYANVGINHVINLWGADFDSDGNLKAIYVTDSDSNASIGMKKYFVGVNSSGKVAISAKEIKEDNIGAQVLGLFTLSTGQDIWNQTN
B5: PRT-305 (protein)
chain: B4 chain with A14T, T17I, Q18K, V28K, N30G, T39E, G215R, N217G, F253G, S259A
B6: PRT-297 (protein)
chain: B4 chain with V28D, T39E, G215R, N217G, F253G, S259A
B7: PRT-265 (protein)
chain: MVTSVWTKGVTPPTNFTYGEDVLHAPYVANQGWYDITKLFNGKDNLLCGAATAGNMLHWWFDQNKEQIENYLKKHPEKQKINFNGEQLFDVKEAIDTKDSQLDSKLFEYFLEKAFPYLSTKHLGVFPDHVIDMFINGYRLSLTNHGPTPVKRGSKDKRGGIFDAVFTRGVQSKLLTNRHDFKEKTLKEISDLIKQELTEGKALGISHTYANVRINHVINLWGADFDAEGNLEAIAVTDSDTNASIGMKKYFVGVNSSGKVAISAKEIEEDNIGAQVLGLFTLSTGQDIWNQTN
B8: PRT-281 (protein)
chain: MVTSVWTKGVTPPAKFTQGEDVFHAPYVANQGWYDITKTFNGKDDLLCGAATAGNMLHWWFDQNKEKIEAYLKKHPDKQKIMFGDQELLDVRKVINTKGDQTNSELFNYFRDKAFPNLSARRIGVMPDLVLDMFINGYYLNVYKTQTTDVNRTYQEKDRRGGIFDAVFTRGDQSKLLTSRHDFKEKNLKEISDLIKKELTEGKALGLSHTYANVRIGHVINLWGADFDSNGNLKAIYVTDSDSNASIGMKKYFVGVNSSGKVAISAKEIKEDNIGAQVLGLFTLSTGQDSWNQTN
B9: PRT-249 (protein)
chain: MVTSVWTKGVTPPTNFTYGEDVLHAPYVANQGWYDITKTFNGKDDLLCGAATAGNMLHWWFDQNKEQIENYLKKHPEKQKINFNGEQMFDVKEAIDTKDSQLDSKLFDYFKEKAFPNLSTKHLGVFPDHVIDMFINGYRLSLLNHGPTPVKRGSKDPRGGIFDAVFTRGDQSKLLTNRHDFKEKTLKEISDLIKQELTEGKALGISHTYANVRINHVINLWGADFDAEGNLEAIYVTDSDSNPSIGMKKYFVGVNSSGKVAISAKEIEEDNIGAQVLGLFTLSTGQDIWNQTN
B10: PRT-258 (protein)
chain: B7 chain with N45D, L88M, K157P, V170D, T241S
B11: PRT-257 (protein)
chain: B9 chain with T39L, N117Y, L143T
B12: PRT-250 (protein)
chain: B9 chain with T39L, V212G
B13: PRT-23 (protein)
chain: MANQEIRYSEVTPYHVTSVWTKGVTPPANFTQGEDVFHAPYVANQGWYDITKTFNGKDDLLCGAATAGNMLHWWFDQNKDQIERYLKEHPEKQKINFNGEQMFDVKEAIDTKNSQTDSKLFEYFKEKAFPYLSTKHLGVFPDHVIDMFINGYRLSLTNHGPTPVKEGSKDPRGGIFDAVFTRGDQSKLLTSRHDFKEKNLKEISDLIKKELTEGKALGLSHTYANVRINHVINLWGADFDSNGNLEAIYVTDSDSNASIGMKKYFVGVNSAGKVAISAKEIKEDNIGAQVLGLFTLSTGQDIWNQTN
B14: PRT-24 (protein)
chain: B13 chain with N113D, I145L, N199T, E246K
B15: PRT-242 (protein)
chain: MVTSVWTKGVTPPANFTQGEDVFHAPYVANQGWYDITKTFNGKDDLLCGAATAGNMLHWWFDQNKDQIKRYLEEHPEKQKINFNGEQMFDVKEAIDTKNHQLDSKLFDYFKEKAFPNLSTKHLGVFPDHVIDMFINGYRLSLLNHGPTPVKEGSKDPRGGIFDAVFTRGDQSKLLTSRHDFKEKNLKEISDLIKKELTEGKALGLSHTYANVRINHVINLWGADFDSNGNLKAIYVTDSDSNPSIGMKKYFVGVNSSGKVAISAKEIKEDNIGAQVLGLFTLSTGQDSWNQTN
B16: PRT-313 (protein)
chain: MQITSVWTKGVTPLTPEQFRENNEDVIHAPYLAHQGWYDITKAFDGKDNLLCGAATAGNMLHWWFDQNKTEIEAYLSKHPEKQKIIFGNQELFDLKAAIDTKDSQTNSQLFDYFRDKAFPNLSARQLGVMPDLVLDMFINGYYLNVGKTQSTDVNRPYQDKDKRGGIFDAVFTRGDQTTLLTARHDLKNKGLNDISTIIKQELTEGRALALSHTYANVSISHVINLWGADFNAEGELEAIYVTDSDANPSIGMKKYFVGRNAHGHVAISAKKIEGENIGAQVLGLFTLSSGKDIWQKLS

The target of this data set is pooled human IgG.
As to B1, the Enzyme Activity Endpoint Assay (purified): Fab'2 worked out at 469 ng/µL, the Enzyme Activity Endpoint Assay (purified): Fc was 337 ng/µL, the Enzyme Activity Endpoint Assay (purified): IgG was determined as 139 ng/µL and the Enzyme Activity Endpoint Assay (purified): scIgG stood at 214 ng/µL.
As to B2, the Enzyme Activity Endpoint Assay (purified): Fab'2 is 928 ng/µL, the Enzyme Activity Endpoint Assay (purified): Fc was determined as 406 ng/µL, the Enzyme Activity Endpoint Assay (purified): IgG turned out to be 0 ng/µL and the Enzyme Activity Endpoint Assay (purified): scIgG came to 0 ng/µL.
Turning to B3, the Enzyme Activity Endpoint Assay (purified): Fab'2 is 782 ng/µL, the Enzyme Activity Endpoint Assay (purified): Fc is 429 ng/µL, the Enzyme Activity Endpoint Assay (purified): IgG was determined as 0 ng/µL and the Enzyme Activity Endpoint Assay (purified): scIgG turned out to be 0 ng/µL.
Take B4: the Enzyme Activity Endpoint Assay (purified): Fab'2 was determined as 581 ng/µL, the Enzyme Activity Endpoint Assay (purified): Fc was found to be 304 ng/µL, the Enzyme Activity Endpoint Assay (purified): IgG stood at 90 ng/µL and the Enzyme Activity Endpoint Assay (purified): scIgG came to 114 ng/µL.
Protein B5 showed an Enzyme Activity Endpoint Assay (purified): Fab'2 of 786 ng/µL, an Enzyme Activity Endpoint Assay (purified): Fc of 359 ng/µL, an Enzyme Activity Endpoint Assay (purified): IgG of 91 ng/µL and an Enzyme Activity Endpoint Assay (purified): scIgG of 0 ng/µL.
In the case of B6, the Enzyme Activity Endpoint Assay (purified): Fab'2 worked out at 484 ng/µL, the Enzyme Activity Endpoint Assay (purified): Fc is 345 ng/µL, the Enzyme Activity Endpoint Assay (purified): IgG amounted to 338 ng/µL and the Enzyme Activity Endpoint Assay (purified): scIgG is 0 ng/µL.
B7: the Enzyme Activity Endpoint Assay (purified): Fab'2 was 0 ng/µL, the Enzyme Activity Endpoint Assay (purified): Fc was found to be 3 ng/µL, the Enzyme Activity Endpoint Assay (purified): IgG was 1640 ng/µL and the Enzyme Activity Endpoint Assay (purified): scIgG worked out at 0 ng/µL.
As for B8, the Enzyme Activity Endpoint Assay (purified): Fab'2 was found to be 673 ng/µL, the Enzyme Activity Endpoint Assay (purified): Fc worked out at 317 ng/µL, the Enzyme Activity Endpoint Assay (purified): IgG was determined as 347 ng/µL and the Enzyme Activity Endpoint Assay (purified): scIgG amounted to 29 ng/µL.
As for B9, the Enzyme Activity Endpoint Assay (purified): Fab'2 stood at 818 ng/µL, the Enzyme Activity Endpoint Assay (purified): Fc turned out to be 457 ng/µL, the Enzyme Activity Endpoint Assay (purified): IgG was found to be 0 ng/µL and the Enzyme Activity Endpoint Assay (purified): scIgG is 0 ng/µL.
Turning to B10, the Enzyme Activity Endpoint Assay (purified): Fab'2 was determined as 762 ng/µL, the Enzyme Activity Endpoint Assay (purified): Fc was 425 ng/µL, the Enzyme Activity Endpoint Assay (purified): IgG was determined as 0 ng/µL and the Enzyme Activity Endpoint Assay (purified): scIgG came to 0 ng/µL.
The protein B11 showed an Enzyme Activity Endpoint Assay (purified): Fab'2 of 1050 ng/µL, an Enzyme Activity Endpoint Assay (purified): Fc of 439 ng/µL, an Enzyme Activity Endpoint Assay (purified): IgG of 0 ng/µL and an Enzyme Activity Endpoint Assay (purified): scIgG of 0 ng/µL.
In the case of B12, the Enzyme Activity Endpoint Assay (purified): Fab'2 turned out to be 313 ng/µL, the Enzyme Activity Endpoint Assay (purified): Fc was 310 ng/µL, the Enzyme Activity Endpoint Assay (purified): IgG turned out to be 86 ng/µL and the Enzyme Activity Endpoint Assay (purified): scIgG worked out at 454 ng/µL.
B13 registered an Enzyme Activity Endpoint Assay: Fab′2 of 45 ng/µL, an Enzyme Activity Endpoint Assay: Fc of 125 ng/µL, an Enzyme Activity Endpoint Assay: IgG of 12 ng/µL and an Enzyme Activity Endpoint Assay: scIgG of 19 ng/µL.
On the same counts, the results for B14 are 52 ng/µL, 131 ng/µL, 18 ng/µL and 16 ng/µL.
B15 showed an Enzyme Activity Endpoint Assay (purified): Fab'2 of 1030 ng/µL, an Enzyme Activity Endpoint Assay (purified): Fc of 418 ng/µL, an Enzyme Activity Endpoint Assay (purified): IgG of 0 ng/µL and an Enzyme Activity Endpoint Assay (purified): scIgG of 0 ng/µL.
B16 returned an Enzyme Activity Endpoint Assay (purified): Fab'2 of 409 ng/µL, an Enzyme Activity Endpoint Assay (purified): Fc of 303 ng/µL, an Enzyme Activity Endpoint Assay (purified): IgG of 114 ng/µL and an Enzyme Activity Endpoint Assay (purified): scIgG of 328 ng/µL.
